Assay [1] concerns the target T1, human LIGHT (TNFSF14), full length, membrane-bound (214E allele) (human, UniProt O43557 1-240).
T1 construct: also called membrane LIGHT; human membrane LIGHT
Kind of assay: flow cytometry, EL4-LIGHT cells. (In general: A flow cytometer gives signals particle by particle.)
Target sequence in this assay (O43557 whole entry K214E): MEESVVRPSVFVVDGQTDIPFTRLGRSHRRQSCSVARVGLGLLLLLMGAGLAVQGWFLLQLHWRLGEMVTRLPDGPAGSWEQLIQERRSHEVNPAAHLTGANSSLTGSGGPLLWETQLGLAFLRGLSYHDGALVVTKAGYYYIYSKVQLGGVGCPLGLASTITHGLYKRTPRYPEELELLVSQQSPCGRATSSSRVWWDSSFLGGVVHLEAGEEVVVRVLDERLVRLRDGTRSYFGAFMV

Assay [2] concerns the target T2, recombinant human soluble LIGHT, amino acids 74-240 (R&D Systems 664-LI-025) (human, UniProt O43557 74-240).
T2 construct: range 74-240; also called 74-240 LIGHT; Soluble LIGHT 74-240
T2 chain: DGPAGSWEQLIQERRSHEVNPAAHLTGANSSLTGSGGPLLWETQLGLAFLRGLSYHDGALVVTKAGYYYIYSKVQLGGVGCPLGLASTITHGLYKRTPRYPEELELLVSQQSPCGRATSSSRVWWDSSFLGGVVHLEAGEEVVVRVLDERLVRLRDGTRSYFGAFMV
The assay is described as follows: native mass spectrometry, LIGHT:antibody 1:5. The method, then:
The LIGHT protein (R&D Systems 664-LI-025) was solubilised in PBS buffer at a final concentration of 4 μM, whereas the mAbs were maintained at 20 μM in PBS. The samples were buffer exchanged into ammonium acetate pH 7.4 at different concentrations via a column with a cut-off of 40 kDa prior to mass spectrometry optimisation. […] Samples were stored at 4° C. and were used within one week. The antibodies were diluted to 1 μM prior to MSanalysis. For complex formation the LIGHT protein was incubated with each antibody separately in 1:5 ratio on ice and native mass measurements were performed 30 min after incubation.
Native mass spectroscopy was utilised to determine the ratio of mAb bound to native trimeric LIGHT. The measured mass of 3B04 (IgG4) was 147256±0.7 Da and the F19 anti-LIGHT mAb, (IgG4 mAb from EP2292663) was 147364±6.6 Da. Unlike the monoclonal antibodies the LIGHT protein was highly heterogeneous as expected, due to post-translational glycosylation. Two major populations of the light protein were recorded with measured masses of 68 kDa and 71 kDa. Both of these proteoforms are higher in mass than the theoretical trimeric mass of the protein, 62827.38 Da. […] In the case of LIGHT binding with 3B04, the stoichiometry can be assigned to one antibody per one LIGHT protein (masses of 219630±221 Da and 216960±380 were recorded).

The target of assay [3] is T2, recombinant human soluble LIGHT, amino …. Kind of assay: SPR (BIAcore), mAb captured on anti-human Fc, soluble LIGHT in flow. The method, then:
(§1) Real-time binding interactions between captured antibody (chimeric anti-membrane LIGHT monoclonal antibody) captured on a biosensor matrix via goat anti-human Fe IgG and recombinant soluble LIGHT were measured by surface plasmon resonance (SPR) using the BIAcore system (GE Healthcare) according to manufacturer's instructions and standard procedures. Briefly, soluble LIGHT was diluted in HBS running buffer (GE Healthcare) and aliquots were injected through the immobilized protein matrices at a flow rate of […]. BIAevaluation software was used to calculate association rate (ka), dissociation rate (kd) and affinity (KD).
(§2) The specificity of two lead anti-membrane LIGHT mAbs to soluble LIGHT was determined by BIAcore analysis and compared to the KD calculated from the EC50 values in Table 7 (results in Table 9). In brief, mAbs 3D12, 3B04 were compared to a mAb that binds both soluble and membrane LIGHT, F19, (F19 IgG4 mAb from EP2292663). An irrelevant anti-HEL mAb, 2A11, was used as a negative control. The mAbs were captured on an anti-human Fc mAb coated chip and soluble LIGHT was passed over the surface and the kinetic parameters were calculated using BIAcore 3000 software. The soluble LIGHT preparations used were amino acids 74-240 LIGHT (R&D Systems, 664-LI-025) and 64-240 LIGHT (Abcam, ab82123).
(In general: In SPR one partner is held on a chip, and binding of the other changes the refractive index at the surface.)

Assay [4] addresses T3, soluble LIGHT, amino acids 64-240 (Abcam ab82123) (UniProt O43557 64-240).
T3 construct: range 64-240; bought protein; also called 64-240 LIGHT; Soluble LIGHT 64-240
Described as above. The protocol:
as §1, §2

For assay [5], the target named is T1, human LIGHT (TNFSF14), full length, …. Kind of assay: flow cytometry, mAb binding to EL4 cells stably expressing human LIGHT [upper panel].

B1: 3B04 (antibody, human IgG4, V domains shown)
VH: QVQLQQPGAELVRPGASVTLSCKASGYTFTDYEMHWVKQTPVHGLEWIGEIDPETGDTAYSQKFKGKATLTADKSSSTAYMEFRSLTSEDSAVYYCSRETDYFFDYWGQGTTLTVSS
VL: DIQMTQTPASLSASVGETVTITCGASENIYGALNWYQRKQGKSPQLLIYGATNLADGMSSRFSGSGSGRQYSLKISSLHPDDFATYYCQNVLTTPWTFGGGTKLEIKR
notes: chimeric: mouse variable domains on human IgG4 HC (S-to-P and L-to-E at 248) and human CL; also called Parental 3B04; 3B04 chimeric
As to B1, a half-maximal effect in assay [1] (EC50) was put at 0.12 nM. Also, in assay [2], the “stoichiometry, antibodies per LIGHT trimer” value is 1 antibodies per LIGHT trimer. Also, in assay [3], the Kd (commonly the concentration at which binding is half-saturated) was found to be 15.7 nM; the koff (as a rule, the rate constant with which the complex falls apart) amounted to 0.00348 s⁻¹; the kon (commonly the second-order rate constant of association) turned out to be 222000 M⁻¹ s⁻¹. Moreover, in assay [4], the affinity, expressed as Kd, was 13.8 nM; the dissociation rate constant (koff) is 0.00345 s⁻¹; the kon came out at 251000 M⁻¹ s⁻¹. Further, the EC50 (read off the curve) – broadly, the concentration giving half of the maximal effect – in assay [5] was about 0.1 nM.

B2: 3D12 (antibody, human IgG4, V domains shown)
VH: QVQLQQPGAELVRPGASVTLSCKASDYTFTDSEIHWVKQTPVHGLEWIGEIDPETGGTAYNQKFKGKATLTADKSSSTAYMELRSLTSEDSAVYYCSRETDYFFDYWGQGTTLTVSS
VL: DIQMTQSPASLSASVGETVTITCGASENIYGALNWYQRKQGKSPQLLIYGATNLADGMSSRFSGSGSGRQYSLKISSLHPDDVATYYCQNVLSTPWTFGGGTKLEIKR
notes: chimeric: mouse variable domains on human IgG4 HC (S-to-P and L-to-E at 248) and human CL; also called Parental 3D12; 3D12 chimeric
As for B2, in assay [1], the EC50 – broadly, the concentration that produces a half-maximal response – is 0.08 nM. Further, in assay [3], the dissociation constant Kd turned out to be 14 nM, the off-rate (koff) came out at 0.00235 s⁻¹ and the kon came out at 168000 M⁻¹ s⁻¹. In addition, in assay [4], the Kd came out at 10.7 nM, the koff was determined as 0.00234 s⁻¹ and the on-rate constant (kon) turned out to be 219000 M⁻¹ s⁻¹.

The values above are taken from patent US20230035798A1 (CAPELLA BIOSCIENCE, published 2023).
